Experimental data: paper PMC10954620

molecular target: OmcS nanowires (cytochrome OmcS filaments of Geobacter sulfurreducens) (G. sulfurreducens (endogenous in strain ΔomcZ)) (UniProt Q74A86); test: NMR titration; 1D 1H NMR chemical shift perturbation of the heme methyl signals of oxidized PpcA-E with and without OmcS nanowires, single point at 1:4 heme ratio periplasmic cytochrome:OmcS; 50 mM potassium phosphate with KCl (ionic strength 150 mM), pH 7, 2H2O; 298 K, 600 MHz
UniProt Q74A86, sequence (Q74A86 26-432, stated change not applied): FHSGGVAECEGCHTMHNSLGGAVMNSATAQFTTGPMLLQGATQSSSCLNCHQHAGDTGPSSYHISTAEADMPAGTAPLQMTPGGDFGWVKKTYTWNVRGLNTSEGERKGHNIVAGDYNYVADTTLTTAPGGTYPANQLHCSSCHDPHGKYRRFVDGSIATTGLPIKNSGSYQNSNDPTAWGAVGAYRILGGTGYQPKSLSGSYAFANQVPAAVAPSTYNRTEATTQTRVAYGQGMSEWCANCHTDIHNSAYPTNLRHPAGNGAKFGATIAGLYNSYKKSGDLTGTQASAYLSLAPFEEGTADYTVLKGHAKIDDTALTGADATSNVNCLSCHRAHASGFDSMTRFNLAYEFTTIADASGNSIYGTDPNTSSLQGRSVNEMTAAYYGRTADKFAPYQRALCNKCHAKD

Chemical shift change of heme methyls (Δδ), < 0.04 ppm:
Periplasmic triheme cytochrome PpcA (natural protein)
Periplasmic triheme cytochrome PpcE (natural protein)
Periplasmic triheme cytochrome PpcB (natural protein)
Periplasmic triheme cytochrome PpcD (natural protein)
